Measurements: publication PMC11098746 (2024)

B1: 16 (protein)
chain: NNLDKNKNFIQYKNFKKNKAYKYKNNNNNIIIINSHSHSNSHSNSHSHSNSHSNSHSHSNSHSNSHSHSNSHSHSHSNSHSNSHSHSSTQNSLYHDTNQANFLKPTSFFLYKHHVYFNQKYKKDPNILNKLKVPRNHIFHINKCDLNYYIQNYEFFFFFPDYYEYSHLYIRLDKLFYFQRCGCDTNIKKTKKRNQNIFNNMLGMKEKDTYLQNEICDIYWNYLKDDNTYDKYNFAIINYIKNIIKKMYRYLYIYKVFVLKQFYRIVYYNQGIRNFYYMLFSYIYNKGSIIYNYNQMYFKKHRKKQTIIRSKRFMNEHIKEEDVDYNIVKDEKDKSIQSTEQKSYLKNNAIQYFQCFLDKAMENKNAENELDKWIDPQSKSCYCSEEFAEPCTSEDLVDINNINQIMDNAFCEYNNNDNNNNDNNKNNNNNINNIINIYDNNILGDNVKNIFVALSEYKILQCNDKEKKDIIKKEQLYNYCKYGLNIWDNKNMYDYLNCLNVISYNKKDDKTCIRKCENIKKLCNIVAQFYSFEVCKKYYENNKHTEDIYINNFKYFSDHCKYIDPTNRGLVLCKHKNVECVYSQWSEWSTCSKTCIENEYDTNSARTRTRILLNKFEVPSKSCSFIINEKNNLMDINFCSYLPFCNKNNDMKKKDDERIMPFVISIKEIEKLNTLKYLNNDDNDLLNENYKNYESVHKNNECKVTDMYQYEYAISYNEKNKACSCPNNQAPCYFKDIYNSESWKKSLHILCKHNPHINVITADYIIIDCNMAISIKKKEIAVNTYLAMTFNCHSDIFQYIFCAKNIQSIRTN
modifications: bait human Fc-tagged dimer
B2: 17 (protein)
chain: ANIDKVNLARNFLFSYIQKNLYYTRSYFNVAQLFSTLQIFLDQFCYPGLGRCIPYINKCLCYDKSKMKPKTAKSCLNNCGVISLCSGYPYGPGYKIIPNEFINNRKVVTCVVSSLQNKLDRTCGYNKKLRFNENKIYCIPYDLLDMNLAGIYCVNNNKEKIFCKGFLRQIYTNLKEYEILDIAYHNFILNNPCNEHIYDDGTNYKGCQDTSISGRKCLHWNSLNMEKVLPYLYLHNYCRNPEGLSYIYCYVDNNGIITREYCKSRSNIIFNNIAYSREKYFHFDITMKNVADFRIKLDNKPCNQRYFVNNHRINEFTYDKRNYAYHNINGEIALTISFKNFAYNTYYDYKLYICACFKYYYTNDLVICSTDNYKVEIGSFLITKAYTDKDTNVFYLNRQYNLAFNINYEIIKNEIYIIKGDYAYECNHLRIIGNDNIHMITNMNILFNYYKNQNFQKIHPPLEPNKKYSYIYSYFDPILDLSSILRKNELFINPQSSNIIKGYQNVDNLNNDGKTNSKSKFAKNKHMLQNGAP
modifications: bait human Fc-tagged dimer
B3: 41 (protein)
chain: VYNVKTQKNEGIIIDKEGKENDNGNSDRNTPNNNNRLNRMTLNKEMYEKHNKMNNEEDNNKNINYDLSNLKDGMKKKHFGSNSAEDKTNKKSSINSVLEKYQHTKHEEKNLQNLNKNMMTHENDDSMKSIFISEESFESAKNVCQFIVMQNDYFKNFCNIASLVYDIEKLKKNNHKIYEEILSNSYENNNGAKFKLLKEINHAKVFKEMDNTNPKFSILFLYDKFCYGGIPLACSNLMKYDNVFDINEQSETTNKPDDNVNMEEMENYIINQAGMENGFEENVADLTQE
modifications: bait human Fc-tagged dimer
B4: 12 (protein)
chain: SDTFRVFEDFDVRRKNKIWCCNLNHEKSYFHNKAINTAYKNRVLKESILLNLDLDMKKYKDNIITRKKTPENIYKEIYENNYEMKYDEDIPNNMAEEKRDEKEVIEHLEIDEKNGKQYKSDINKPVSLSHLKQYKNIYVNNNNKINKKKSIDKHLPSYNLERKNNKYLNFLLVDNRNEAYTFMVPMKFYINHEMYNIADEEYNKLMEDNSVDVYLNNILVEYKYENFEIKEGEVDGEVEGEGEVEGEVEGEVKGKVVEGIENNMNEEEKYNKDNKDKENQINSNGQDENTEFQENDNNDAVIMKYT
modifications: bait human Fc-tagged dimer
B5: 52 (protein)
chain: AEEHEITHKTYFDITIDDKPLGRIVFGLYGKVAPKTVENFVSICKGTVVDGKMLHYTNSIFHRIIPNFMAQGGDITNFNGAGGLSIYGKKFEDENFKVNHAKRGLLSMANAGKNTNGAQFFILFIPTPWLDGRHVVFGEVVEGLDKLVHIEAVGTDSGEPLKRVLVKESGELPL
modifications: bait human Fc-tagged dimer
B6: 18 (protein)
chain: KENKNDNFLNGIYKLQNIWRNTALGELDLKKANIENAEGIIEKFNDANKADFNQHPHFRSKLSFLEHKNHKDMGIVTNHQNKDHKKNEYTSEEIIDMKPQLASQEMWRKGENFYMHGATNTNEQNDDEDLFESFHKNHNSNIKINSPCFDLQDKEMCSNNKECFYDDAYKACFQNCALVNEKKCSLYSECKHTPNGCQNEGYLNIQVFGSNLGGDVRACELFESEGSCYLMEKLFKKLSEEKKETSFNCVWISYKHELRSYDDENEPKENNDNIVALENKNKYMYMNNVESIHNNHHLENPYHEDIKHNKHKSFNYHVLSSSVPRQIAKNEKFLSLLQLNLKGKKKEKNKKKKKDDEDDDDIDEEDDDLDIEGKNNEFNADEEENSKDLKNNNIDDNEEDGTTDEDDLFNNKKKKKNNNNNNANNNNNKNKNKQNTNKKNNKIINEFDDDIDEVSEENLLNDEEKKQNKIKNKNINEANNIAENNEIEISSKDLTEQYEDKYNYDKKNNMGTNNNFNNANTFANNKNNLHNKYINHASHTQNEKDILKHNFYGKDNNGAYEIIKVETHICANLNEKPNPSTLLEGALIAENEAQLQKIKKKYKVTDNEICVRPTNSAYVSLIPDKKYYLLGEKIEFKCQEGYKIIGTTNIGVCTGRNIISPNIACESLTNFDDVEKDNIQKMNNIINS
modifications: bait human Fc-tagged dimer
B7: 34 (protein)
chain: TKKKVSVSEINFDSAVDDVQWCGNNHMTVLVKTVKGRLYRSSDGGKIWTNIAGNLADKENNKADPSSNHMNEMTTVDLIMVNSVNKNIVLIIGNQKNHYISEDSGETFRLLNYQNKINFWQFHSTKTHWALVSSWTEACYSNDDNSGECMQTLSLTKDLGRTFQLIDIYVVQFNWGDKESHLEDTIYYTRHKNRNGHQQRFSGWSKDVDFVATHNFGKSVDVLVKQGNKFLISNGYIFVAKLNDVIKQTVNMMVSTDGGKTFNKANLPENIHEKSYTVLDTSEGSIMLHVNHGTSSEKINTGNVYISDASGLNYALSLPNNIRTSSGECEFDRVLSLDGVYIANFLDVNNEIKDEDLRFQNFKSAIEEDIAPFETNTEKRKKQYNKGKNEDAVRTVISFNKGGEWSYLKAPKVDSRGNKYECGDNCYLHLHGITNYHQYAPFYSIENAVGIIMGTGNVGSHLRYESDEVNTFLSRDGGVTWIEAHKGPYIYEYGDYGGLIVMADDLRKTNQIVFSWNEGQSWFDFELGQFSIDVDNIVAEPNSASVEFLVYGTRNDVGVLYHLDFNALGQPLCKGLWAADSVSSDYETWSPTSGNFNDKCILGRKITYTRRKQTSECFNGKDLKRTVDKKPCECTPEDYECETGFTRKIGSYECKPNDPTLTIEGCTSSSYFYANAYRKVPGDICVNGWVPEKVPVPCPSYAPFNKAAK
modifications: bait human Fc-tagged dimer
B8: 66 (protein)
chain: KIISCVIQKNPILHLWKIYSFQKCPHNYYCEQESLKKKKCPPNSIKTIYDGTINDCLCLPGYYLKGNIQTCIPCEKGSYKNTISNDACIKCPINFATLFETSKSVYDCVCRKGYYFSWNTNIDTNDIEKKNIYNNNINSIYRNKNEIKLIKELEEEYAFNVEKKRKNKHKFILHKKLNNRYRENIHKKQISLKRKIKFLNEQKEINNHLNFLHVNEILNIAFFNDNQNYIYKNKNKQENDANIEINPVSKQTSLHSNNIANKYMRNNFLQINEKLYINNANNNYNEYIHKAQCTKCPRKMFCPGYWLENYENEIHHPPIYCPKGSLILGTTIESTDIHKCICRKGYSINLAIKPNRNKNVNVNDNDNGNNNNNANNNNNNANGNSATLNNNNNMCVMCKEGYYKDVIDNSVCAGLCIEFSTSFKGSISKKQCFCTVGKYMIQDEKDENKCINCAKGSICIGGFKFKSLRELIKNQYYINLNIYDHSIPLPKKGYFATFQINHEDFKWKPLNSLHIEINNYEKGNIIITDKIILNVFHKKLHLINIGEKNKYDQADQGIYIKKNLNNNAFIHNNNNIKYIVEESKHLRDRTMANIPNEPILVNEKLEPIIYKNNFLMIDRIPDFHLCPISNRCMGTSSNLCFKGSEGYLCNNCANSYDVIHFRSQCIKCRKKKTEM
modifications: bait human Fc-tagged dimer
B9: 80 (protein)
chain: INPATLIQNHLYMYQTNNAINEENIYNMKKFSKLPIAENTRNIRHSTNDLYYEHSLNLEKPNEHFTLHNIKLICQQIYHNQPNQLNLRILAVLLSTSYKQENIANIFQNLCNNGLSCLFTIQLSKNKAFVDQNKIVHLKIIDTDDLKRNKNNNIRHKITVYYICEDLKYKNQKQQESNEFKYVFNYEQLAFLKCENYLTVQVEKLVGINYNKEFHNLNPEYISFYCSQRVICNTHIEDLYKEDDKKRKNYIFYELTYRCVPPKVCSFCGNNAACKLEKLYNKEKEITQFYNNVEYNDAGVFDRLLLNKEEEEERNKASFVANLEYNAINYDIDDMITVGSNTYHILEICKCSKDYVQEGSSCVKKEKDKIYIRYAKK
modifications: bait human Fc-tagged dimer
B10: 15 (protein)
chain: MAFFSIFIILNFFMLSLTSSLGNGFLHSSITFSNDFCKGMNLHFLISAEEIDSKFFLNKMLLLILGGSSYMRYSKENYFSVSIYDKKLVYKNIKKIENIQGASYYEQLQSAFKKHIKPSARRTNLYESLKEYYEKYIIGNKNIKKSKNIIIIVKKFTSDDLSEYHENLNRYIKEIRSKDVGIYFFSDDSIYSKNIILNIAESGYNMEVQYPIAHFVSESYRANDLFGVKKFCYQLLHGATCKSYNEWSEWSGPCEFERRQRIIPLKITNIESTNFRSHYDPSCRNVFDYSMSIKEDFRVNCKNSIYECRGICDKGYKFKPYAKSNEIVESYEECNDLPPCTRDQRKNGDHTLYADVILNSLLSESSIQQIRDRDDRALIEKDMP
modifications: bait human Fc-tagged dimer
B11: 28 (protein)
chain: GVLSFKFNTIKNLNVHLEIVMYGLFHIYNYKLNFKIVCDNGYYYIFNDCFPCPQGYYNNINIIKTNVDFINKCMKCDKNKATLIEKSSNKADCLCNFGYEYIKNPADPQEFICSPCTRGMYKNTISNKLCDGNACTGNFATSVIGAKNIIESTCFCKPGFYVTYDYRGIEFCKECLLHFYCPGNVIGIQKCPIHNEALQPEKRINFDSLHGCFCKKGYEPINILNINKAGTRDEHYYKLFHNTYADKFKDINPKHICMECDIGYYKDTISFQPCKKCPNQATNKKYGSTSLNDCNTCHSGYYKNINKACSTCLPNHFCVGDLLQKDLDKYSGDAVICPNNAVTKKPYTQNGAFKDCLCIEGYIKNYQESYNINDHCKLVPLNFYKDSISNDLGTPCPVNSITLNVGAKTINECLCNKGYFYNVKKQQCEECPIGFYCPKISSKNNIKKPIKCPKNSASIKKGMYISNNCQCNFGYTKYIHIDNNQALLNNNIIKYDNKKTNKMFYSFLSNNYYNYKNKINYINKAYNNRNLILLRNIQNKNAIYKKKKRKNVLCIRCPPMTYKGTISNDPCEACPLNSRTIESVNNAHIFFCLCNPGYYLHEQMCKPCSFSKLYCTGENIYIISQSLYETALQEIKNIYVSKNNDMYKMILMNLALYDYSQNVNINNNNNNNNNNNIHNNNIYNIYNSINHYNNDNNIFVNPIVNNKLKHHNNIIYPPYNLLNSQVDTIPFLKKKYGNNINIANILDLNSLYKEPIQNNNNLNTILKSFFHKDNENLIYVKYQNFVTCGKNTVIPLGVDSSYTFDDCKCKKGYYLKSKDINNAIKICEPCKTGTFKNYVGDDTFCLHCPPKSTSLEGSIYPTHCFCKGGFFYSKGYCLECLEGALCKGGLNKNVMQRMKFNMENILITEKDHIKPHSNKNYYLDKSVIDVVDVSEWKFIKCPIKGACLEKNKCHKSMNNYLCIECAKGYTNSFMTSLCVKCPNNIANM
modifications: bait human Fc-tagged dimer

These binders were tested against FGFR4 ectodomain (Homo sapiens, UniProt P22455) (assay: AVEXIS normalised luminescence).
Binder B1 has a binding score of 1.5. B2 gave a binding score of 0.943. In the case of B3, the binding score is reported as 1.23. Work on B4 yielded a binding score of 0.891. Work on B5 yielded a binding score of 1.22. For B6, the binding score was 1. B7 gave a binding score of 0.648. Work on B8 yielded a binding score of 0.776. B9 showed a binding score of 1.04. B10 gave a binding score of 0.902. Binder B11 has a binding score of 0.857.
